Results as given in patent US20160024226A1.

Target: TNF-α (WEHI-13VAR cytotoxicity assay of Example 2)

Work on cycloalkyne-modified adalimumab Fab′ yielded an IC50 (read off the curve) [lower panel] of 0.5 µg/mL and an IC50 (read off the curve) [upper panel] of 0.3 µg/mL.
